Assay results reported in paper PMC9482650, “Quantitative fragmentomics allow affinity mapping of interactomes” (Nature Communications, 2022).

T1: APBA2_1, Q99767
T1 sequence (Q99767 563-664, limits assumed, looked up): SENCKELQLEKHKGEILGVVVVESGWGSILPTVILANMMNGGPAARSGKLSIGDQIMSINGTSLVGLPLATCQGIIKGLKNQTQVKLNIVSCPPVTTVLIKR

T2: APBA3_1, O96018
T2 sequence (O96018 389-490, limits assumed, looked up): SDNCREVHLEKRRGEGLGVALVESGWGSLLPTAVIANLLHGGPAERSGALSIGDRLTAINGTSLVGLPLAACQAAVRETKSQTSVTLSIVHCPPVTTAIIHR

T3: DFNB31_2, Q9P202
T3 sequence (Q9P202 274-371, limits assumed, looked up): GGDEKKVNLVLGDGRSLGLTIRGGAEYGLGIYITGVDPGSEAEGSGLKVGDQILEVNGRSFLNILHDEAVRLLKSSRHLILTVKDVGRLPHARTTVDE

T4: GRIP1_7, Q9Y3R0
T4 sequence (Q9Y3R0 999-1096, limits assumed, looked up): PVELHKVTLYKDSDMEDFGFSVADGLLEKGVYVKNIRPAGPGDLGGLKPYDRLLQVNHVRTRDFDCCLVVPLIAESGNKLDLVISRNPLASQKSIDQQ

T5: LRRC7, Q96NW7
T5 sequence (Q96NW7 1440-1537, limits assumed, looked up): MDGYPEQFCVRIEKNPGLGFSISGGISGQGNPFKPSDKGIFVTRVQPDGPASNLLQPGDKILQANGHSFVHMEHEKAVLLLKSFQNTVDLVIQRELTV

T6: MPDZ_10, O75970
T6 sequence (O75970 1624-1722, limits assumed, looked up): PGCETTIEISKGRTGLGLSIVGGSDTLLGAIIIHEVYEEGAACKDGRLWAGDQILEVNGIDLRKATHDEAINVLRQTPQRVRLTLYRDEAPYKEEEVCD

T7: MPDZ_12, O75970
T7 sequence (O75970 1857-1958, limits assumed, looked up): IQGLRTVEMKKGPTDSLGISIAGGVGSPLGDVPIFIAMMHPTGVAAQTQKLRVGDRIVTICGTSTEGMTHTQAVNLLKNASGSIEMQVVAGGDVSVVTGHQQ

T8: NHERF3_1, Q5T2W1
T8 sequence (Q5T2W1 4-100, limits assumed, looked up): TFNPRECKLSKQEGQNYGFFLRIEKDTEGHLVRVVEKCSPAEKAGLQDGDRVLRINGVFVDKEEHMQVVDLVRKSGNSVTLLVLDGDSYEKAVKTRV

T9: PTPN13_1, Q12923
T9 sequence (Q12923 1088-1188, limits assumed, looked up): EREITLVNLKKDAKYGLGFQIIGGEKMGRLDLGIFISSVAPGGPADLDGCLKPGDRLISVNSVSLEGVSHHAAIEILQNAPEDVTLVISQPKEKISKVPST

T10: RHPN1, Q8TCX5
T10 sequence (Q8TCX5 508-602, limits assumed, looked up): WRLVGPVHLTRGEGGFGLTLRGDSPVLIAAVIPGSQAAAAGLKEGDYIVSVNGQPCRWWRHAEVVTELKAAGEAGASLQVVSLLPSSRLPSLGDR

T11: SNTA1, Q13424
T11 sequence (Q13424 82-180, limits assumed, looked up): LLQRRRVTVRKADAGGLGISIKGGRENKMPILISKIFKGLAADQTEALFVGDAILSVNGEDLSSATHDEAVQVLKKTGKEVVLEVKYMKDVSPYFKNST

T12: SYNJ2BP, P57105
T12 sequence (P57105 8-110, limits assumed, looked up): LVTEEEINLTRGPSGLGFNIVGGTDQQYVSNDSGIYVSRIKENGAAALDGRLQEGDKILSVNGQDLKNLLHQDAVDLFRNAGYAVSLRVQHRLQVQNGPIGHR

T13: TJP3_3, O95049
T13 sequence (O95049 375-456, limits assumed, looked up): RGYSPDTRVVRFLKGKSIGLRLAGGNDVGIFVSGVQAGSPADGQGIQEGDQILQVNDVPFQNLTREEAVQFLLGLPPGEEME


These binders were tested against T1, APBA2_1, Q99767 (assay: holdup assay). Settings: plain residues with an end cap or a label only (N-terminal biotin on a linker: ado-ado).
Set-up: key: below the threshold = too weak to quantify, mostly under pKd 3.1 to 4
With ILRKSTTTTV [PRR16, Q569H4] the pKd was “below the threshold”. STKRKLASAV [NCF1, P14598] was tested, and the pKd was “below the threshold”.

These binders were tested against T2, APBA3_1, O96018 (assay: holdup assay). Settings: plain residues with an end cap or a label only (N-terminal biotin on a linker: ado-ado).
Set-up: key: below the threshold = too weak to quantify, mostly under pKd 3.1 to 4
With ILRKSTTTTV [PRR16, Q569H4] the pKd was “below the threshold”. For STKRKLASAV [NCF1, P14598], the pKd was “below the threshold”.

What follows are binders tested against CASK, O14936 (assay: holdup assay). Settings: plain residues with an end cap or a label only (N-terminal biotin on a linker: ado-ado).
Chain of CASK, O14936 (O14936 487-570): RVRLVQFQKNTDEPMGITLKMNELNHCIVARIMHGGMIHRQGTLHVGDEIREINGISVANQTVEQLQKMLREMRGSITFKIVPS
Set-up: key: below the threshold = too weak to quantify, mostly under pKd 3.1 to 4
In the case of ILRKSTTTTV [PRR16, Q569H4], the pKd is reported as “below the threshold”. In the case of STKRKLASAV [NCF1, P14598], the pKd is reported as “below the threshold”.

Each binder was assayed against T3, DFNB31_2, Q9P202 (assay: holdup assay). Settings: plain residues with an end cap or a label only (N-terminal biotin on a linker: ado-ado).
Set-up: key: below the threshold = too weak to quantify, mostly under pKd 3.1 to 4
With ILRKSTTTTV [PRR16, Q569H4] the pKd was “below the threshold”. STKRKLASAV [NCF1, P14598] was tested, and the pKd was “below the threshold”.

These binders were tested against DLG1_1, Q12959 (assay: holdup assay). Settings: plain residues with an end cap or a label only (N-terminal biotin on a linker: ado-ado).
Set-up: key: below the threshold = too weak to quantify, mostly under pKd 3.1 to 4
Work on ILRKSTTTTV [PRR16, Q569H4] yielded a pKd of 4.76. STKRKLASAV [NCF1, P14598] was tested, and the pKd was 3.68.

Each binder was assayed against DLG1_2, Q12959 (assay: holdup assay). Settings: plain residues with an end cap or a label only (N-terminal biotin on a linker: ado-ado).
Set-up: key: below the threshold = too weak to quantify, mostly under pKd 3.1 to 4
In the case of ILRKSTTTTV [PRR16, Q569H4], the pKd is reported as 5.43. For STKRKLASAV [NCF1, P14598], the pKd was 4.61.

These binders were tested against DLG1_3, Q12959 (assay: holdup assay). Settings: plain residues with an end cap or a label only (N-terminal biotin on a linker: ado-ado).
Set-up: key: below the threshold = too weak to quantify, mostly under pKd 3.1 to 4
ILRKSTTTTV [PRR16, Q569H4] showed a pKd of 3.63. With STKRKLASAV [NCF1, P14598] the pKd was “below the threshold”.

These binders were tested against T4, GRIP1_7, Q9Y3R0 (assay: holdup assay). Settings: plain residues with an end cap or a label only (N-terminal biotin on a linker: ado-ado).
Set-up: key: below the threshold = too weak to quantify, mostly under pKd 3.1 to 4
With ILRKSTTTTV [PRR16, Q569H4] the pKd was “below the threshold”. With STKRKLASAV [NCF1, P14598] the pKd was “below the threshold”.

What follows are binders tested against GRIP2_7, Q9C0E4 (assay: holdup assay). Settings: plain residues with an end cap or a label only (N-terminal biotin on a linker: ado-ado).
Chain of GRIP2_7, Q9C0E4 (Q9C0E4 934-1023): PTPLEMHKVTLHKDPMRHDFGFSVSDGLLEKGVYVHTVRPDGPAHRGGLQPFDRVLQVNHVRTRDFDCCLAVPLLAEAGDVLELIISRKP
Set-up: key: below the threshold = too weak to quantify, mostly under pKd 3.1 to 4
With ILRKSTTTTV [PRR16, Q569H4] the pKd was “below the threshold”. STKRKLASAV [NCF1, P14598] was tested, and the pKd was “below the threshold”.

What follows are binders tested against Inadl_5, Q8NI35 (assay: holdup assay). Settings: plain residues with an end cap or a label only (N-terminal biotin on a linker: ado-ado).
Chain of Inadl_5, Q8NI35 (Q8NI35 673-780): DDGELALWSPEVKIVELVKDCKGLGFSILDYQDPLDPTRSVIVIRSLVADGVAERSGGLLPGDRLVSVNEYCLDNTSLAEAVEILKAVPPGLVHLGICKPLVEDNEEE
Set-up: key: below the threshold = too weak to quantify, mostly under pKd 3.1 to 4
With ILRKSTTTTV [PRR16, Q569H4] the pKd was “below the threshold”. With STKRKLASAV [NCF1, P14598] the pKd was “below the threshold”.

What follows are binders tested against LNX1_3, Q8TBB1 (assay: holdup assay). Settings: plain residues with an end cap or a label only (N-terminal biotin on a linker: ado-ado).
Chain of LNX1_3, Q8TBB1 (Q8TBB1 500-596): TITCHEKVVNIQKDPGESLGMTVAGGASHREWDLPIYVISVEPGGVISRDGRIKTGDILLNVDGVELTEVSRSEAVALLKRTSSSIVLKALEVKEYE
Set-up: key: below the threshold = too weak to quantify, mostly under pKd 3.1 to 4
For ILRKSTTTTV [PRR16, Q569H4], the pKd was “below the threshold”. For STKRKLASAV [NCF1, P14598], the pKd was “below the threshold”.

These binders were tested against T5, LRRC7, Q96NW7 (assay: holdup assay). Settings: plain residues with an end cap or a label only (N-terminal biotin on a linker: ado-ado).
Set-up: key: below the threshold = too weak to quantify, mostly under pKd 3.1 to 4
In the case of ILRKSTTTTV [PRR16, Q569H4], the pKd is reported as “below the threshold”. For STKRKLASAV [NCF1, P14598], the pKd was “below the threshold”.

What follows are binders tested against MAGI1_2, Q96QZ7 (assay: holdup assay). Settings: plain residues with an end cap or a label only (N-terminal biotin on a linker: ado-ado).
Chain of MAGI1_2, Q96QZ7 (Q96QZ7 456-580): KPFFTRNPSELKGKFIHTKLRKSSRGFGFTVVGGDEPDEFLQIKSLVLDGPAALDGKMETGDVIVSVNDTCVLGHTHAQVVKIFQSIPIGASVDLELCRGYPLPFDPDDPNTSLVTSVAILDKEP
Set-up: key: below the threshold = too weak to quantify, mostly under pKd 3.1 to 4
Work on ILRKSTTTTV [PRR16, Q569H4] yielded a pKd of 4.76. STKRKLASAV [NCF1, P14598] gave a pKd of 5.08.

What follows are binders tested against MAGI2_2, Q86UL8 (assay: holdup assay). Settings: plain residues with an end cap or a label only (N-terminal biotin on a linker: ado-ado).
Chain of MAGI2_2, Q86UL8 (Q86UL8 410-522): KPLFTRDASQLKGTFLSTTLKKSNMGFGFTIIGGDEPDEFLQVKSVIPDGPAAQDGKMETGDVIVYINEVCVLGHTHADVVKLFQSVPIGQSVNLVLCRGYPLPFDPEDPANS
Set-up: key: below the threshold = too weak to quantify, mostly under pKd 3.1 to 4
ILRKSTTTTV [PRR16, Q569H4] showed a pKd of 5.2. STKRKLASAV [NCF1, P14598] showed a pKd of 5.44.

These binders were tested against MAGI2_4, Q86UL8 (assay: holdup assay). Settings: plain residues with an end cap or a label only (N-terminal biotin on a linker: ado-ado).
Chain of MAGI2_4, Q86UL8 (Q86UL8 772-865): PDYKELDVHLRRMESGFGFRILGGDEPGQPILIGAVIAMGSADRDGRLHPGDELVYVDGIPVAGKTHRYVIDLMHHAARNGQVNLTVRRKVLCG
Set-up: key: below the threshold = too weak to quantify, mostly under pKd 3.1 to 4
With ILRKSTTTTV [PRR16, Q569H4] the pKd was 4.14. For STKRKLASAV [NCF1, P14598], the pKd was “below the threshold”.

What follows are binders tested against T6, MPDZ_10, O75970 (assay: holdup assay). Settings: plain residues with an end cap or a label only (N-terminal biotin on a linker: ado-ado).
Set-up: key: below the threshold = too weak to quantify, mostly under pKd 3.1 to 4
For ILRKSTTTTV [PRR16, Q569H4], the pKd was “below the threshold”. With STKRKLASAV [NCF1, P14598] the pKd was 3.64.

The binders below were run against T7, MPDZ_12, O75970 (assay: holdup assay). Settings: plain residues with an end cap or a label only (N-terminal biotin on a linker: ado-ado).
Set-up: key: below the threshold = too weak to quantify, mostly under pKd 3.1 to 4
ILRKSTTTTV [PRR16, Q569H4] was tested, and the pKd was “below the threshold”. STKRKLASAV [NCF1, P14598] gave a pKd of 3.52.

These binders were tested against T8, NHERF3_1, Q5T2W1 (assay: holdup assay). Settings: plain residues with an end cap or a label only (N-terminal biotin on a linker: ado-ado).
Set-up: key: below the threshold = too weak to quantify, mostly under pKd 3.1 to 4
In the case of ILRKSTTTTV [PRR16, Q569H4], the pKd is reported as “below the threshold”. With STKRKLASAV [NCF1, P14598] the pKd was “below the threshold”.

These binders were tested against NHERF4_4, Q86UT5 (assay: holdup assay). Settings: plain residues with an end cap or a label only (N-terminal biotin on a linker: ado-ado).
Chain of NHERF4_4, Q86UT5 (Q86UT5 464-550): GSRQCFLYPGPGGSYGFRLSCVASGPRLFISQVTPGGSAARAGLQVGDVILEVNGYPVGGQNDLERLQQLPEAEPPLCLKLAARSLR
Set-up: key: below the threshold = too weak to quantify, mostly under pKd 3.1 to 4
In the case of ILRKSTTTTV [PRR16, Q569H4], the pKd is reported as “below the threshold”. For STKRKLASAV [NCF1, P14598], the pKd was “below the threshold”.

What follows are binders tested against PDZRN4_1, Q6ZMN7 (assay: holdup assay). Settings: plain residues with an end cap or a label only (N-terminal biotin on a linker: ado-ado).
Chain of PDZRN4_1, Q6ZMN7 (Q6ZMN7 213-318): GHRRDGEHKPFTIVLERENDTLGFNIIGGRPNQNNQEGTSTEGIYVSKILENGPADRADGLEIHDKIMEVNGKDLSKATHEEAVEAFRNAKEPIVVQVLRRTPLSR
Set-up: key: below the threshold = too weak to quantify, mostly under pKd 3.1 to 4
For ILRKSTTTTV [PRR16, Q569H4], the pKd was “below the threshold”. In the case of STKRKLASAV [NCF1, P14598], the pKd is reported as “below the threshold”.

Each binder was assayed against T9, PTPN13_1, Q12923 (assay: holdup assay). Settings: plain residues with an end cap or a label only (N-terminal biotin on a linker: ado-ado).
Set-up: key: below the threshold = too weak to quantify, mostly under pKd 3.1 to 4
ILRKSTTTTV [PRR16, Q569H4] was tested, and the pKd was “below the threshold”. STKRKLASAV [NCF1, P14598] was tested, and the pKd was “below the threshold”.

What follows are binders tested against T10, RHPN1, Q8TCX5 (assay: holdup assay). Settings: plain residues with an end cap or a label only (N-terminal biotin on a linker: ado-ado).
Set-up: key: below the threshold = too weak to quantify, mostly under pKd 3.1 to 4
Work on ILRKSTTTTV [PRR16, Q569H4] yielded a pKd of 4.01. STKRKLASAV [NCF1, P14598] was tested, and the pKd was “below the threshold”.

The binders below were run against T11, SNTA1, Q13424 (assay: holdup assay). Settings: plain residues with an end cap or a label only (N-terminal biotin on a linker: ado-ado).
Set-up: key: below the threshold = too weak to quantify, mostly under pKd 3.1 to 4
In the case of ILRKSTTTTV [PRR16, Q569H4], the pKd is reported as 3.92. In the case of STKRKLASAV [NCF1, P14598], the pKd is reported as “below the threshold”.

The binders below were run against T12, SYNJ2BP, P57105 (assay: holdup assay). Settings: plain residues with an end cap or a label only (N-terminal biotin on a linker: ado-ado).
Set-up: key: below the threshold = too weak to quantify, mostly under pKd 3.1 to 4
With ILRKSTTTTV [PRR16, Q569H4] the pKd was 4.2. STKRKLASAV [NCF1, P14598] was tested, and the pKd was 4.85.

These binders were tested against T13, TJP3_3, O95049 (assay: holdup assay). Settings: plain residues with an end cap or a label only (N-terminal biotin on a linker: ado-ado).
Set-up: key: below the threshold = too weak to quantify, mostly under pKd 3.1 to 4
In the case of ILRKSTTTTV [PRR16, Q569H4], the pKd is reported as “below the threshold”. With STKRKLASAV [NCF1, P14598] the pKd was “below the threshold”.
